The target of assay [1] is FimV_(SoHubP), C-terminal FimV domain of S. oneidensis HubP (S. oneidensis). In words: BLI. In general terms: Biolayer interferometry detects binding as a change in optical thickness at a sensor tip.
For assay [2] the target is unchanged. In words: interferometric scattering mass spectrometry.

By Kd is commonly meant the free concentration of one partner at which half of the binding sites on the other are occupied at equilibrium, for simple one-to-one binding. A high value points to lower affinity.

Where a chain is given by its changes, count along the chain named. Names and notes keep the numbering of the source.

B1: MBP-GGDEF_(SoPdeB), GGDEF domain of S. oneidensis PdeB, wild type (domain or fragment)
chain: RSLAVCYLDLEQFKLINDSCGHTAGDRMLAMVARAIQSCLGPQELLARIGGDEFGLVICDRTALAVAQLLKQIIAQVSLQVLHDKNCNYKVGLSIGVAFGRAPYINAQELLKDADIACIAAKAKGTNQIHIYDD
B1 yielded a Kd in assay [1] of 200 nM. The stoichiometry N (GGDEF per FimV (2:2 complex)) in assay [2] turned out to be 1.

B2: SoGGDEF_(PdeB) K575S (domain or fragment)
chain: B1 chain with K122S
B2: the fold increase of KD against wild type in assay [1] came out at 100 fold.

B3: SoGGDEF_(PdeB) K577S (domain or fragment)
chain: B1 chain with K124S
For the molecule B3, the fold increase of KD against wild type in assay [1] amounted to 10 fold.

The record behind these values is paper doi:10.1101/2021.08.12.456111.
